In the DeepSol protein solubility set:

Assay: soluble on expression in E. coli; label from the status in PepcDB or PDB records

Row | Sequence | soluble on expression in E. coli
1 | MRVIVTEYQPAWVEQFEEEAQALKQILKENCLKVEHIGSTSVPNLAAKPIIDFLVIVEEIEKVDLLQWEFERIGYEYMGEFGLSGRRYLRKGPIKRTHHVHIYQFDNTQEILRHLAFRNYLRENPAIATTYGTLKKQLAQAHPDSIDKYMDGKDAFIKKIEKEALKKYWEK | not soluble
2 | MGSDKIHHHHHHMLTRLEVNCFKNLLGFSVNFGPFNCVAGLNGVGKSNIFDSIKFLSLLADKSIVEAALEVRESDSTDPLDIFWTNGEFRSERLSLAVEMIVPVDVIDDFGRRAKATSTFLRYEVELARDDGERESGSLGLHLVKETLIHINKGEAVDRLRFPMSAAKFRENIVINKRKGAGFISTHQDRDGIVEIHLHQDGGSSGQPQKFPARNAPKTVVSNTNSGVWPTILAARREMQSWRFLSLEPSAMRRSNKIHEEGAVSSGGGRLGAALYKLHRKDPSVYTRVASRLSEIVPTSDIRVDVDQVRQLLTVEVKERSGAFLPARALSDGTLRFLALSIIAEDPDFNGVLCFEEPENGIHPARVGAMLALLKELSVDPHDEVSESNSMRQIVVATHSPVLVSLEEPNDLIFADVVKVKGPNGMPATTIRCKCLRESWRFSDEEGNGIDRASIISYLELPPDRQISLNLKTTGVAINLEATV | not soluble
3 | SIGLTVEDLLSLRQVVSGNPEALAPLLENISARYPQLREHIMANPEVFVSMLLEA | soluble
4 | SETESDAEVACDLSNMEITEELRQYFAETERHREELLRRQQLDAERLNSYVNAEHDLYCNTRRSVEAPAERPGERRQAEMKRLYWDSAAKIQAMEANVQLSFDKHCDPKQPNYWPVIPPKF | soluble
5 | MAHHHHHHMEGEEYDKILVLNFGSQYFHLIVKRLNNIKIFSETKDYGVELKDIKDMNIKGVILSGGPYSVTEAGSPHLKKEVFEYFLEKKIPIFGICYGMQEIAVQMNGEVKKSKTSEYGCTDVNILRNDNINNITYCRNFGDSSSAMDLYSNYKLMNETCCLFENIKSDITTVWMNHNDEVTKIPENFYLVSSSENCLICSIYNKEYNIYGVQYHPEVYESLDGELMFYNFAYNICKCKKQFDPIRYHELELKNIEKYKHDHYVIAAMSGGIDSTVAAAYTHKIFKERFFGIFIDNGLLRKNEAENVYTFLKSTFPDMNITKIDASENFLSNLQGVTDPEQKRKIIGKLFIEEFEKAVNNIDIDINKTFLLQGTLYPDIIESKCSKNLSDTIKTHHNVGGLPKNLKFKLFEPFKYLFKDDVKTLSRELNLPEEITNRHPFPGPGLAIRVIGEINKHKLNILREVDDIFINDLKQYGLYNQISQAFAVLLSSKSVGVRGDARSYDYVCVLRAVKTSSFMTANWYQIPYDILDKITTRILSEVKGVNRILYDVSSKPPATIEFE | soluble
6 | MACLCLANISWATVCANSTGVAEDEHYDLSNVFNSTNNQPGQIVVLPEKSGWVGVSAICPPGTLVNYTYRSYVTNFIVQETIDNYKYMQLNDYLLGAMSLVDSVMDIQFPPQNYIRMGTDPNVSQNLPFGVMDSRLIFRLKVIRPFINMVEIPRQVMFTVYVTSTPYDPLVTPVYTISFGGRVEVPQNCELNAGQIVEFDFGDIGASLFSAAGPGNRPAGVMPQTKSIAVKCTNVAAQAYLTMRLEASAVSGQAMVSDNQDLGFIVADQNDTPITPNDLNSVIPFRLDAAAAANVTLRAWPISITGQKPTEGPFSALGYLRVDYQ | not soluble
7 | MEMYFKRMKDEWTGLVEQADPPIRAKAAEIAVAHAHYLSIEFYRIVRIDPHAEEFLSNEQVERQLKSAMERWIINVLSAQVDDVERLIQIQHTVAEVHARIGIPVEIVEMGFRVLKKILYPVIFSSDYSAAEKLQVYHFSINSIDIAMEVMTRAFTFSDSSASKELEHHHHHH | soluble
8 | MDWMPLGDYETFRHWSGKPRAWGPQESGWRAWFGGKIVDGLCEVLDEHLAVRRRGVPAAIGCVPWLSSEAVAETLLALSVFCVVIDKGTSFPSRLRNPDKGFPNVALLRLRDMAPSEHGSRCSSARGRLCLSMS | not soluble
9 | MAHHHHHHMPIHQYEGWSYERLRQQRNRAHFLLEDPYRYVTVLLISKPGRPEELKCIDSPCYHAAGPLGEGDIVEIEDLLCLRCPWHRYLVNIENGEEILLRVDPASAQGAGIVGRQAALPTYPMHFTDPSAEGVTVVHGEKVQRVHRAWLEEATGILSIEVAEEAVMRQHPVKSDKPAGNVKNGGICMQIFDIKLRGLDKL | not soluble
10 | ASCETTVTSGDTMTYSTRSISVPASCAEFTVNFEHKGHMPKTGMGHNWVLAKSADVGDVAKEGAHAGADNNFVTPGDKRVIAFTPIIGGGEKTSVKFKVSALSKDEAYTYFCSYPGHFSMMRGTLKLEE | soluble
11 | MAQVMYATPDNMLSRFGEQDLTLLTEREDSVPGEINLALLEQALSDASAEIDGYIAGRYVLPLTTVPAVLERNCCDIARYFLYGDKAPEQVEKRYAAVVKFLTAVSKGDISLGLATTGETADQSELVISIESAGSVFGRKSAKGFI | soluble
12 | MLFKTIFYQKLQKKVTTLFNLETERVIREIENLNKNNPKVIFQAPEGLKLKVEKEIEKIKQYFKQKNINIEIYLWGNTCFGACDLIDNHVKNLNVDLIIHYGHEKLSYANPEIKTLFIPAYHIFNKDEEEKILNDIKNFIEKHKSGGKKVAIATTIQYKKLLKDFNPSIILGCRGEVKEGDVILFVGTGRFHPLMIAYKYQKEVFIYNPLSKCFDKISEEEINKFIKKRILAISKLLLNKPKKVGVVLSTKKGQCRKRVFDEIIKLLEENDVNYLPILVDNISPDILFYDVDCYIIVACPRIVLDDYILYKKPIYTPEEFKLFLKNSFKYKFDEIKEDDFLEHHHHHH | soluble
13 | QLHLSLPSDTQASYSSTQRKQAEIMAEGFGPGINSPFLVVADAHSVDENAEILEPLIRAQNPAPGERKQAAANAAYQYIIQKYSVTPDVKHVQIVGLSKDGLAAQLLLTPESSPEDDVTKQLIDALLIKQDEVNNATGIRSGITGLIPVQQDVTNR | not soluble
14 | MPFPVTTQGSQQTQPPQKHYGITSPISLAAPKETDCLLTQKLVETLKPFGVFEEEEELQRRILILGKLNNLVKEWIREISESKNLPQSVIENVGGKIFTFGSYRLGVHTKGADIDALCVAPRHVDRSDFFTSFYDKLKLQEEVKDLRAVEEAFVPVIKLCFDGIEIDILFARLALQTIPEDLDLRDDSLLKNLDIRCIRSLNGCRVTDEILHLVPNIDNFRLTLRAIKLWAKRHNIYSNILGFLGGVSWAMLVARTCQLYPNAIASTLVHKFFLVFSKWEWPNPVLLKQPEECNLNLPVWDPRVNPSDRYHLMPIITPAYPQQNSTYNVSVSTRMVMVEEFKQGLAITDEILLSKAEWSKLFEAPNFFQKYKHYIVLLASAPTEKQRLEWVGLVESKIRILVGSLEKNEFITLAHVNPQSFPAPKENPDKEEFRTMWVIGLVFKKTENSENLSVDLTYDIQSFTDTVYRQAINSKMFEVDMKIAAMHVKRKQLHQLLPSHVLQKKKKHSTEGV | soluble
15 | MGSDKIHHHHHHMTAFNPIAIIPHYNHSATVGSVAEQLNQLGLPVLIVDDGSSLEHKAVIEQFPQNEQLSILFCEINGGKGAAFKAGLKQTQKLGFSHAIQVDADGQHNIIDVKKMLEQAEKSPNAIVCGKPIYGKDAPKSRLYGRKITDFWNAINTLSFDIKDGMCGFRIYPIAQIMPILAQEQIGGGMDFDTEILIHSYWQKIPLIWVDTPVKYEKDGISHFRGWADNWLISKMHARLFFRMLKRLFTGKIR | not soluble
16 | VLQLAEQIDVVIFDLNGTLTTGVPVVKEYAVLNDADLSSEHFLSICNVLEGQSKHPFGKAIQSFTQGINKQKFNIANLDHSNHSGISAEINGIQYTIGSKTLMQEIGISTSSLENQMNLVAGDSLVFLARNKQLLGYLVITDPLRKDAKQTVDALIKMGKEVHLCTGADEKTAYRYAQALGIKKVHANCVATTINTEDRSKPVYIKSLQNQGLKVAMIGDAANDANALAASDFGIAVLSQDSDEITQQHASAIIQSGTILPIANAFAISKQTVNNINQNLLISLGYNLTTV | not soluble
17 | MGSDKIHHHHHHMSRYVIRTYKVPVPVELYPLCSELNRIAARIYNKTMSLVKKIKNKKGFWLSPNTAQKYILRWSSAIDIHTHSKQAMVQLYFQALNSYFVAVKTNPHAKPPYKRKNFLPFIWKNQAIKLLPDGKVKLSMGRNREPFVIPTTLPAGTTIRQAKLVYEAGRYYLHLAIEVKSEHKRGQSQKVMSVDVGILRPITCFDGSEVISYHGGVLNSILRYRNKRLADIQRALSRCQKGSRRYKKLSRAKRRVLYKTRNQINDVLHKITSHFIGLCVQKNIGTIVVGDITNIRERTNGNDNFNQKLHQWAFRKLMSQIEYKAQIFGIEVVRISEAHTSKTCPVCGTQNRPSGRNYKCAGCGFEYHRDGVGAINIWKRYLGTKSQVVAGLAPARGVRFNPHLCGHGAISAPWKAA | not soluble
18 | MYTHLTDMTNMLDTAKIGTSDGTFPLANAQNLQKAVEELQTGISKGMAGYFVLQYEIDNYCIAAEKAIAEFQDSYQQTLQPGTPAELKVFGIDGKGRIEFGSDPAYGGGNTFTVESWVKYDAGFFESGIGSFLSTFDGKQPNEGWMINFLGSNLRTTIGMGPQEGRVLEEGRAYPDNFGKWNHVVTVWDNTLPEGQLKMYVNGELFFSKTNDVKNDAGVLQNYMPNTRNQNMWAFQEPTDNSRCMTGFIKKFRMWSTAKSANEVKTLMNSDVTGTESGLVCAWDFTTVVEDVTNIPDKTGKHVAKIVGNYKWFKVEN | not soluble
19 | MSLSELSVLSAETAISFHEMDLEILKESQKALREEAGGKEEVEETVENPNPIVFIAVDDQNLPNGEEEDSFIFEKLQFRVKQVMENGTRRVYLSVQATTPAEWQLLVQLRIKTGCQSNILNVVDKDVYKFDSFSYPLNVEIQNSDVKFLKFEMRVLNLMYLDLPTFEEGDEVIEFDDGSRIRVHSNILSLLSDYLGKSEKEYASRTDCPAIKATCSEKEAFLELLYQAYPTRRPIFASFRRLTAGAVGYKCDNLIYQLSKHLIDYNYRPMTFLQRFQAAIENRLEPAISELAFRAALDGTWNQMIQSGFEPENFCGRQVYTKIVCPAILLARNAKPDATTLKKPENNLKFIELEEGDTTKSAILFRGTIFYINSGILAAHGKEMLCIGQNGEYIARYTAEFHRECARGDLIPGEVLVQLLTYMHPMGEVPHPDMIRACIVFAFDHGWNIVKENLENEFEPPITPDEYMSQLMFGDKFDLKNLLRVNIQRAESSCRELAEVLERHGKLKILKDRTHEGIMDRMCSGWGLNPMVNRLSTRFPTTFHHRTVNLQRGKAVVVGEGRAVDTLNSLASDHAFGEPTELIVVD | not soluble
20 | MTTTPYDIIGKEALYDMIDYFYTLVEKDERLNHLFPGDFAETSRKQKQFLTQFLGGPNIYTEEHGHPMLRKRHMDFTITEFERDAWLENMQTAINRAAFPQGVGDYLFERLRLTANHMVNS | not soluble
21 | MTWPARRVLYAIWQDPWMTVSRATYISRMLALVNWATWPDDADTSDTPAACVDGDCSRPNAPGERYPTFRWSDALVRELDAVLLSTEPYRFTEDHADALERQIGKPVLLVDGEMLSWYGSRAVAGARYLRSLAQGFLEHHHHHH | not soluble
22 | NPHMWWLQDADPENNSRQASPSQESINQLVYMGFDTVVAEAALRVFGGNVQLAAQTLAHHGGSLPPDLQF | soluble
23 | MGSDKIHHHHHHMTAEDTYKTIVEPSEGIYTEKRSKFIAIALPVRTLDEIKAHLETYQKKYYDARHVCYAYMLGAARKDFRANDNGEPSGTAGKPILGQINSNELTDILIIVVRYFGGIKLGTSGLIVAYKAAAAEAISAATIIEKTVDEEVTVMFEYPFMNDIMRIVKEEEPEILSQSYDMDCSMTLCIRRSMMPKLRARLEKVETARILDEE | not soluble
